Laboratory results as given in IntAct's records for PubMed 20600852.

B1: Inhibitor of nuclear factor kappa-B kinase subunit beta (Homo sapiens), O14920 (parent)
chain: MSWSPSLTTQTCGAWEMKERLGTGGFGNVIRWHNQETGEQIAIKQCRQELSPRNRERWCLEIQIMRRLTHPNVVAARDVPEGMQNLAPNDLPLLAMEYCQGGDLRKYLNQFENCCGLREGAILTLLSDIASALRYLHENRIIHRDLKPENIVLQQGEQRLIHKIIDLGYAKELDQGSLCTSFVGTLQYLAPELLEQQKYTVTVDYWSFGTLAFECITGFRPFLPNWQPVQWHSKVRQKSEVDIVVSEDLNGTVKFSSSLPYPNNLNSVLAERLEKWLQLMLMWHPRQRGTDPTYGPNGCFKALDDILNLKLVHILNMVTGTIHTYPVTEDESLQSLKARIQQDTGIPEEDQELLQEAGLALIPDKPATQCISDGKLNEGHTLDMDLVFLFDNSKITYETQISPRPQPESVSCILQEPKRNLAFFQLRKVWGQVWHSIQTLKEDCNRLQQGQRAAMMNLLRNNSCLSKMKNSMASMSQQLKAKLDFFKTSIQIDLEKYSEQTEFGITSDKLLLAWREMEQAVELCGRENEVKLLVERMMALQTDIVDLQRSPMGRKQGGTLDDLEEQARELYRRLREKPRDQRTEGDSQEMVRLLLQAIQSFEKKVRVIYTQLSKTVVCKQKALELLPKVEEVVSLMNEDEKTVVRLQEKRQKELWNLLKIACSKVRGPVSGSPDSMNASRLSQPGQLMSQPSTASNSLPEPAKKSEELVAEAHNLCTLLENAIQDTVREQDQSFTALDWSWLQTEEEEHSCLEQAS

Variants of: B1
Settings: with keap1_human KEAP1, Q14145
Chain of keap1_human KEAP1, Q14145 (Q14145 whole entry): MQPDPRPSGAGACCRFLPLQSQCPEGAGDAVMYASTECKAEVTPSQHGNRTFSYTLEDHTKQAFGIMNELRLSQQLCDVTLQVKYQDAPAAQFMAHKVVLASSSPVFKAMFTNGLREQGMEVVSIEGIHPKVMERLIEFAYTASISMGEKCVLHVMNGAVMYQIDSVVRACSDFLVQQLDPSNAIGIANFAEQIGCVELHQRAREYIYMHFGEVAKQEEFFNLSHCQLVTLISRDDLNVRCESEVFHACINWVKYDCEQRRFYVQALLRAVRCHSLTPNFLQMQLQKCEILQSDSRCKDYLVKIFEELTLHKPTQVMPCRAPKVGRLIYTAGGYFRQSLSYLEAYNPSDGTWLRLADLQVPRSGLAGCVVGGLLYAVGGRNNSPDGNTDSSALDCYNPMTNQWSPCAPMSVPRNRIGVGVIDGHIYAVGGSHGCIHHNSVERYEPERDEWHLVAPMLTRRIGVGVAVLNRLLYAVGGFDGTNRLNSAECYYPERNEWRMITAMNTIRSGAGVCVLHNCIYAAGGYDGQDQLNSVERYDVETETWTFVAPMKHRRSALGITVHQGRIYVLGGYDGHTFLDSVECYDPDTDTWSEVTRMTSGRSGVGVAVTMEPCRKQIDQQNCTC
In the case of E39G, the “effect of a mutation on the interaction” value is reported as “decreasing interaction”.
